Reference: article PMC6123398

Tests used:
[1] = biological target: human FcγRIIIa-Phe158, soluble ectodomain (human) (UniProt P08637); assay: SPR; FcγRIIIa ectodomains immobilised on Series S CM5 chips by amine coupling (Phe158 560 RU, Val158 260 RU); Biacore T200; antibody injected (Rituxan 21,870-30 nM, recombinant mAb 810-3.333 nM, threefold dilutions); blank surface and buffer subtracted; 1:1 Langmuir binding model
[2] = biological target: human FcγRIIIa-Val158, soluble ectodomain (human); assay: as above

Sequence of UniProt P08637 (P08637 17-208): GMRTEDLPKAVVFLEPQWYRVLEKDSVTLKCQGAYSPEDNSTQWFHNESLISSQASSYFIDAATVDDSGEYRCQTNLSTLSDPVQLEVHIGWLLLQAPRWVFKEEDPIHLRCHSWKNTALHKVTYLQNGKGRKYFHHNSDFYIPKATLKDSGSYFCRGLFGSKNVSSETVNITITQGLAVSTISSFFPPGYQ

Kd [1]: 6.8 µM | koff [1]: 0.17 s⁻¹ | kon [1]: 25000 M⁻¹ s⁻¹ | Kd [2]: 0.94 µM | koff [2]: 0.043 s⁻¹ | kon [2]: 46000 M⁻¹ s⁻¹
Substance: Rituxan (antibody)
